In the supplement of paper PMC9170038:

Test system: MS2 coat protein
Test: apparent KD of MS2 coat protein; designed switch direction (-1 OFF switch, 1 ON switch): -1; higher = weaker reporter binding
Method in brief: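 Designed RNA switches sharing common flanks were transcribed on Illumina chips by stalled E. coli RNA polymerase. They were titrated with SNAP-549-labelled MS2 coat protein, from 0.7 or 1.5 nM doubling to 3 µM, in Tris-HCl pH 7.5 buffer with KCl, MgCl2, BSA, DTT, tRNA and Tween-20. Titrations ran without input, with 200 uM small-molecule ligand, or with an oligonucleotide input. The apparent KD of each design is the median over its clusters, after curve-fitting of normalised cluster fluorescence.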

[1] = Eterna round: R95, input ligand: FMN 200 uM
[2] = Eterna round: R95, input ligand: none
[3] = input ligand: microRNA oligo, concentration not stated
[4] = Eterna round: R95, input ligand: microRNA oligo, concentration not stated

Sequence	apparent KD of MS2 coat protein (input ligand: FMN 200 uM) [nM]	apparent KD of MS2 coat protein (input ligand: none) [nM]	apparent KD of MS2 coat protein [1] [nM]	apparent KD of MS2 coat protein [2] [nM]	apparent KD of MS2 coat protein [3] [nM]	apparent KD of MS2 coat protein [4] [nM]
UAUUAGCAAGCAAGAUCCCACAUGAGGAUCACCCAUGUGCUCGUCUUAUAAGGUACUGUGACGAAAGUCACGGUACC [Sensor 3, v1 - 95 v2] (Eterna round: R97, puzzle: Sensor, turn-off variant 1)	52.5	45.4	–	–	–	–
UAUUAGCAAGCAAGGUCCCACAUGAGGAUCACCCAUGUGCUCGUCUUAUAAGGUACUGUGACGAAAGUCACGGUACC [Sensor 3, v1 - 92] (puzzle: Sensor v3, turn-off variant 1)	–	–	46.6	53.1	–	–
UAUUAGCAAGCGAGAUCCCACAUGAGGAUCACCCAUGUAGCUCGUCUUAUAAAGGUUUCGACGAAAACGUCGAGACC [Eli 91 v27] (Eterna round: R97, puzzle: Sensor, turn-off variant 1)	17.5	16.1	–	–	–	–
UAUUAGCAAGCGAGAUCCUACAUGAGGAUCACCCAUGUGCUCGUCUUGUAAGGUACUGUGACGAAAGUCACGGUACC [Eli 91 v38] (Eterna round: R97, puzzle: Sensor, turn-off variant 1)	16.5	15.6	–	–	–	–
UAUUAGCAAGUAAGGUCCCACAUGAGGAUCACCCAUGUGCUCGUCUCCUCAGGUACGGAGCGGAAACUCCCGAUAUG [Sensor-V1 #92] (Eterna round: R97, puzzle: Sensor, turn-off variant 1)	121	102	–	–	–	–
UAUUAGCAAGUGAGAUCCGACAUGAGGAUCACCCAUGUGCUCGUCUUAUAAGGUAAUAUAAGAAAACUUAUAUUACC [Elimod 6 - Jieux - Sensor, turn-off variant 1] (Eterna round: R97, puzzle: Sensor, turn-off variant 1)	207	233	–	–	–	–
UAUUAGUAAGGAUAUGAGGCGUAGUACGAAAGUACUACGUCUCAGAAGGUACAUGAGGAUCACCCAUGUUCAUU [Mod of Fisker 4 - Jieux - Exclusion 4] (Eterna round: R97, puzzle: Exclusion 4)	19.9	17.8	–	–	–	–
UAUUCACAUGAGGAUCACCCAUGUCAGGAUAUAGUCGAUAUAUGGAAACAUAUAUCGACUAGAAGGGACUAGCG [Jieuxxlusion 12 - Jieux - Exclusion 1] (Eterna round: R97, puzzle: Exclusion 1)	64.5	47.4	–	–	–	–
UAUUCACAUGAGGAUCACCCAUGUCAGGAUAUGCUCGAUAUAUGGAAACAUAUAUCGAGCAGAAGGGACUAGCG [Jieuxxlusion 8 - Jieux - Exclusion 1] (Eterna round: R97, puzzle: Exclusion 1)	98.7	41.2	–	–	–	–
UAUUCUAGAUAGGAUAUACUUUUUUUUUUUUUCGUAGAAGGAUCUACAUGAGGAUCACCCAUGUUUUCAGCAGU [JR_E6_Sub012] (Eterna round: R96, puzzle: Exclusion 6)	99.6	71.1	–	–	65.7	–
UAUUCUAGAUAGGAUAUACUUUUUUUUUUUUUCGUAGAAGGAUCUACAUGAGGAUCACCCAUGUUUUCAGCAGU [JR_E6_Sub012] (puzzle: Exclusion 6)	–	–	–	–	–	48.3
UAUUGUUUUUUUUUAAAUUACAUGAGGAUCACCCAUGUUUUUUUUUUUUUGGUGAUUAUUUUUUGUCUUUUUUUUUU [Jieuxbot 037 - Jieux - Sensor v2, turn-off variant] (Eterna round: R96, puzzle: Sensor v2, turn-off variant)	58.5	43.3	–	–	69	–
UCAAGAAUAGGAUAUACAACAUGCCCGCUUCUUUGCAUCGCACAUGAGGAUCACCCAUGUAGAAGGGUUCUCUA [Exclusion-2-#16] (Eterna round: R97, puzzle: Exclusion 2)	103	151	–	–	–	–
UCAAGUAUGUAGGAUAUCGAUGUCUACGGACAUCGAGAAGGACGUACAUGAGGAUCACCCAUGUAACUUGCAUG [Exclusion 6 - B - 10:d] (Eterna round: R96, puzzle: Exclusion 6)	238	283	–	–	144	–
UCAAGUAUGUAGGAUAUCGAUGUCUACGGACAUCGAGAAGGACGUACAUGAGGAUCACCCAUGUAACUUGCAUG [Exclusion 6 - B - 10:d] (puzzle: Exclusion 6)	–	–	37.2	108	–	79.4
UCAAUACGGAAGGAUAUGCCGAAGCAUGCGCAGGCAGAAGGUCUGACAUGAGGAUCACCCAUGUUGGAGAUCAA [Eternabot (L2) Solution 21] (Eterna round: R97, puzzle: Exclusion 6)	82.1	19.1	–	–	–	–
UCAGCUUGUGUCAGGAUAUCCAGUCCGACGGGAGAGGAGAAGGGACAUGAGGAUCACCCAUGUAGGCGCCCUAC [Soerrecege] (Eterna round: R97, puzzle: Brourd's mod of Exclusion 4)	63.8	461	–	–	–	–
